Literature values, collected in publication PMC10631023.
Values joined by “and” are separate entries in the source; they are usually repeats but may differ in a detail not shown here. Equal values may be shown once.

How the values were obtained:
PSGL-1 (Homo sapiens) = PSGL-1 (Homo sapiens) (UniProt Q14242)
VSIG-3 (Homo sapiens) = VSIG-3 (Homo sapiens) (UniProt Q5DX21)
Sequence of UniProt Q5DX21 (Q5DX21 23-241): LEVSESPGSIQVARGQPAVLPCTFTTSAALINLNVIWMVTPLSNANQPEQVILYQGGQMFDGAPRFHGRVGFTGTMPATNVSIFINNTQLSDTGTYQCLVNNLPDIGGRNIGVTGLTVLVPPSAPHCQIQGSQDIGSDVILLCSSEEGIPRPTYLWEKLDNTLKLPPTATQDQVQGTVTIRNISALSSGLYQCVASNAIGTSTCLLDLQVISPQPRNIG

Sequence of UniProt Q14242 (Q14242 42-320): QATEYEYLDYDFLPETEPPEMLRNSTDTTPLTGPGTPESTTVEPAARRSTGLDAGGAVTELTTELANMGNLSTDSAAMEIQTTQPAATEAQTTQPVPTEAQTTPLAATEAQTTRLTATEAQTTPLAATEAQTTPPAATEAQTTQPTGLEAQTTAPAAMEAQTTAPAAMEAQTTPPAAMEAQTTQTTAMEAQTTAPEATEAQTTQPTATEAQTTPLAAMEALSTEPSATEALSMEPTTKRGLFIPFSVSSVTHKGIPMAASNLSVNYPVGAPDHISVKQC

Kd (PSGL-1 (Homo sapiens)): 0.004 µM | Kd (VSIG-3 (Homo sapiens)): 0.02 µM and 0.08 µM
Substance: VISTA (from UniProt Q9H7M9)
